PMC7001106, “Lipid Interactions of a Ciliary Membrane TRP Channel: Simulation and Structural Studies of Polycystin-2” (Structure(London, England:1993), 2020)

Molecular target: the molecule itself
Assay: cryo-EM structure; purified PC2 185-723 in UDM detergent, incubated overnight at 4°C with 18:0-20:4 PI(4,5)P2 (1:20, tetramer:lipid) or 18:1 PI(3,5)P2 (1:40); C4 symmetry imposed in the reconstruction

B1: Polycystin-2, truncated construct hPC2: Pro185 - Asp723 (domain or fragment, human, UniProt Q13563 185-723, looked up)
chain: PRVAWAERLVRGLRGLWGTRLMEESSTNREKYLKSVLRELVTYLLFLIVLCILTYGMMSSNVYYYTRMMSQLFLDTPVSKTEKTNFKTLSSMEDFWKFTEGSLLDGLYWKMQPSNQTEADNRSFIFYENLLLGVPRIRQLRVRNGSCSIPQDLRDEIKECYDVYSVSSEDRAPFGPRNGTAWIYTSEKDLNGSSHWGIIATYSGAGYYLDLSRTREETAAQVASLKKNVWLDRGTRATFIDFSVYNANINLFCVVRLLVEFPATGGVIPSWQFQPLKLIRYVTTFDFFLAACEIIFCFFIFYYVVEEILEIRIHKLHYFRSFWNCLDVVIVVLSVVAIGINIYRTSNVEVLLQFLEDQNTFPNFEHLAYWQIQFNNIAAVTVFFVWIKLFKFINFNRTMSQLSTTMSRCAKDLFGFAIMFFIIFLAYAQLAYLVFGTQVDDFSTFQECIFTQFRIILGDINFAEIEEANRVLGPIYFTTFVFFMFFILLNMFLAIINDTYSEVKSDLAQQKAEMELSDLIRKGYHKALVKLKLKKNTVD
notes: Polycystin-2 (PC2, PKD2, TRPP1), human, residues Pro185 to Asp723; For cryo-EM the protein was treated with alpha-L-fucosidase, PNGase F and TEV protease (the tag stands after a TEV site); The forward primer carries an ATG before the Pro185 codon; Homo-tetramer; also called PKD2; TRPP1; not shown: His10, C-terminal, cleaved; FLAG, C-terminal, cleaved
stoichiometry N: 4
